Experiments:
[1] = tested on: murine model of HOCI-induced fibrosis; experiment: HOCI-induced murine fibrosis model: skin thickness; format: in vivo, mice
rat model of ARDS [2] = experiment: Rat ARDS model (LPS challenge): neutrophils counts in BALF; format: in vivo; settings: antibodies 14 mg/kg x3 prior to LPS; dexamethasone 10 mg/kg oral; vs LPS group; FIG. 16
In short: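 Rats dosed with antibody 14 mg/kg or PBS on days −11, −6 and −1, then LPS 0.25 mg/kg subcutaneously on day 1; reference group got oral dexamethasone 10 mg/kg 2 h before LPS. Neutrophils counted in bronchoalveolar lavage fluid.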

[3] = tested on: murine model of HOCI-induced fibrosis; experiment: HOCI-induced murine fibrosis model: skin and lung collagen (Picrosirius red); format: in vivo, mice; settings: first experiment
Protocol: (§1) In a first experiment, control mice (n=12) received a daily intradermal injection of 300 μL of sterile phosphate buffer saline (PBS) for 5 consecutive days per week, for a duration of 42 days. HOCI alone and HOCI with antibody (HOCI-antibody) treated mice (n=12 per group) received a daily intradermal injection of 300 μL of HOCI for 5 consecutive days per week, for a duration of 42 days. Antibody-treated mice also received a subcutaneous injection of 20 mg/kg antibody, starting at day minus one and every 5 days between day 5 and day 40. Each antibody was solubilized in sterile, endotoxin-free PBS before injection. In a second experiment, the same protocol was applied, except that duration of the study was 63 days and antibodies were given every 7 days starting at day minus 1 until day 62.
(§2) Mice that received daily injection of HOCI were also treated by intratracheal instillation of 0.5 mg/kg of TD139 compound (HOCI-TD139), a small molecule Gal3 inhibitor. In a first experiment, the administrations started from day 21 and the compound was given every 3 days until day 39. In a second experiment, the administrations started from day 20 and the compound was given every 3 days until day 62. TD139 was initially dissolved in 100% DMSO then diluted 50-fold in endotoxin-free PBS before administration.
At the day of study termination of the first experiment (day 42), skin and lung samples were taken, formalin-fixed and processed to individual paraffin wax blocks. Sections of skin and lung were cut from the blocks and, after rehydration, stained with Picrosirius Red coloration according to the manufacturer's protocol. Subsequently, each slide was examined and remotely analyzed employing the web-based Image J software

rat model of ARDS [4] = experiment: Rat ARDS model (LPS challenge): total BALF protein (BCA assay); format: in vivo; settings: antibodies 14 mg/kg x3 prior to LPS; dexamethasone 10 mg/kg oral; vs LPS group; FIG. 17
In short: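 Rats dosed with antibody at 14 mg/kg (in sterile PBS) or PBS on days −11, −6 and −1, then LPS 0.25 mg/kg s.c. on day 1; dexamethasone 10 mg/kg oral 2 h before LPS as reference. Total protein in BALF quantified by BCA assay, compared with the LPS + PBS group.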

plasma Gal3 = experiment: HOCI-induced murine fibrosis model: plasma Gal3 (ELISA); format: in vivo, mice; settings: first experiment, day 42; FIG. 10
Protocol: as §1, §2
In the first experiment, the plasma levels of Gal3 were measured at day minus 1 (before antibody administration) and at termination day (day 42) using a mouse Galectin-3 DuoSet ELISA kit (R&D Systems, DY1197) according to the manufacturer's instructions. Plasma samples were diluted 1:200 in order to fit with the dynamic range of the assay.

plasma IL-6 = experiment: HOCI-induced murine fibrosis model: plasma IL-6 (MSD); format: in vivo, mice; settings: first experiment, day 42; vs HOCI group; FIG. 9
Protocol: as §1, §2
In the first experiment, a mixed effect model with repeated measurements was performed on Control group, HOCI treated group, HOCI-antibody- and HOCI-TD139-treated groups. The impact of HOCI administration on plasma IL-6 and IL-5 levels was evaluated compared to the control group. The impact of antibody and TD139 treatments was compared to the HOCI group (FIG. 9). IL-6 and IL-5 were quantified by using the MSD technology from Mesoscale.

B1: E07: anti-Gal3 monoclonal antibody, IgG1 format; VH SEQ ID NO 42, VL SEQ ID NO 43 (antibody, V domains shown)
VH: EVQLVESGGSLVKPGGSLRLSCAASGFTFSNYNMNWVRQAPGKGLEWISNIYGSSRYIYYADFVKGRFTISRDNAKNSLYLQMNSLRAEDTAVYYCVRSYYGGMDVWGRGTLVTVSS
VL: QSVLTQPASVSGSPGQSITISCAGTSSDVGGYYSVSWYQQHPGKAPKLMIYYDSNRPSGVSNRFSGSKSGNTASLTISGLQAEDEADYYCSSYTGYSTRVFGGGTKLEIK
HOCI-induced increase in skin thickness ([1]; first experiment, 42 days, antibody 20 mg/kg s.c., TD139 0.5 mg/kg intratracheal, vs HOCI group, FIG. 7A): significantly reduced
day from which reduction of skin thickness was significant ([1]; first experiment, sustained effect until day 42): 21 days
HOCI-induced increase in skin thickness ([1]; second experiment, 63 days, antibody 20 mg/kg s.c. every 7 days, sustained effect until day 63, FIG. 7B): significantly reduced
day from which reduction of skin thickness was significant ([1]; second experiment, sustained effect until day 63): 7 days
neutrophils counts in BALF (rat model of ARDS [2]): also decreased
lung collagen levels ([3]; day 42, FIG. 8A): restored lung collagen levels to those of control mice, reaching statistical significance
skin collagen levels ([3]; day 42, vs HOCI group, FIG. 8B): non significant downward trend
total BALF protein (rat model of ARDS [4]): also decreased with a statistic significance
plasma Gal3 levels (plasma Gal3): restored the plasma Gal3 levels to values similar to those of the control group
plasma IL-6 levels (plasma IL-6): significantly decreased the plasma IL-6 levels to values similar to those of control mice

— patent publication US20250215091A1, “Anti-GAL3 Antibodies and Compositions” (Les Laboratoires Servier, priority 2022, published 2025)
